# According to patent US20090202556A1 (Kyowa Kirin, published 2009):
# T1: CLDN6-myc/His (fusion protein in which myc/His was added to the C-terminal of human CLDN6), expressed in CHO … (human, UniProt P56747 1-220)
# T1 chain: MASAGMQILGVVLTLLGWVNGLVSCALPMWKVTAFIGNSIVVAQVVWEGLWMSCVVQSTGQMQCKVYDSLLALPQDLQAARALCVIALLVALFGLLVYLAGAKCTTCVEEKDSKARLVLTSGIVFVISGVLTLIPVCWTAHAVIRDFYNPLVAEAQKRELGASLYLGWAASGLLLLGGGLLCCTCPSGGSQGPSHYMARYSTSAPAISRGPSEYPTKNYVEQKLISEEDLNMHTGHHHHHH
# T2: CLDN9-myc/His (fusion protein in which myc/His was added to the C-terminal of human CLDN9), expressed in CHO … (human, UniProt O95484 1-217)
# T2 sequence: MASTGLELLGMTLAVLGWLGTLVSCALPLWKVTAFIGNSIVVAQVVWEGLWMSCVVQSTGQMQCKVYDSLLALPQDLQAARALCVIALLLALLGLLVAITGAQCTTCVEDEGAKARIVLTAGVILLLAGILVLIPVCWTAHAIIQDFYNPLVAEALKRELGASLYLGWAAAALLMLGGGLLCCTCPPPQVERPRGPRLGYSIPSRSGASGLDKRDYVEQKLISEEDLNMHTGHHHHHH
# T3: CLDN4-myc/His (fusion protein in which myc/His was added to the C-terminal of human CLDN4), expressed in CHO … (human, UniProt O14493 1-209)
# T3 construct: On live cells in FCM; as cell extract in Western blotting (denatured) and immunoprecipitation (Triton X-100 lysate); also called CLDN4-myc/His gene-introduced CHO cell
# T3 sequence: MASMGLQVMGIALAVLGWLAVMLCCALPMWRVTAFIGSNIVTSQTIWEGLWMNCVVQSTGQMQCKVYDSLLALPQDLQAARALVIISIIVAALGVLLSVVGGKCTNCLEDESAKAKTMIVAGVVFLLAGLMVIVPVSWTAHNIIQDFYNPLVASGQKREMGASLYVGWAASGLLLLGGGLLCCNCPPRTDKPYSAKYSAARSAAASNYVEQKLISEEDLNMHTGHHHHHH
# T4: 4-EL1/6-EL2 (CLDN4-CLDN6 fusion protein: EL1 of CLDN4, EL2 of CLDN6, myc/His at the C-terminal side), … (human)
# T4 chain: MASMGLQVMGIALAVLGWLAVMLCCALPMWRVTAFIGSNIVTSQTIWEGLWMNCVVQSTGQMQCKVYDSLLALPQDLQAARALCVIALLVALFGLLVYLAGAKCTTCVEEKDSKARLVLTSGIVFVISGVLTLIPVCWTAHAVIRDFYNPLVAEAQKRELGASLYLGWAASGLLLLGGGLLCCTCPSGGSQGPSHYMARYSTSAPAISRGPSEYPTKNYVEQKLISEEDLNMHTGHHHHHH
# T5: 6-EL1/4-EL2 (CLDN4-CLDN6 fusion protein: EL1 of CLDN6, EL2 of CLDN4, myc/His at the C-terminal side), … (human)
# T5 chain: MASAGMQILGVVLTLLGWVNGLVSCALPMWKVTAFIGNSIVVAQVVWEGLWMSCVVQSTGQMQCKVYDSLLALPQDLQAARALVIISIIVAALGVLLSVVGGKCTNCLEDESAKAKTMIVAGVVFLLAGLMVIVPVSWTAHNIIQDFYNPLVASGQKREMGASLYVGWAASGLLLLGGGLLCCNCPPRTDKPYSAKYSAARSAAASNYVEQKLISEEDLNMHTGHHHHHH
# T6: CLDN3-myc/His (fusion protein in which myc/His was added to the C-terminal of human CLDN3), expressed in CHO … (human, UniProt O15551 1-220)
# T6 construct: also called CLDN3-myc/His gene-introduced CHO cell; not shown: C-terminal myc/His tag
# T6 sequence: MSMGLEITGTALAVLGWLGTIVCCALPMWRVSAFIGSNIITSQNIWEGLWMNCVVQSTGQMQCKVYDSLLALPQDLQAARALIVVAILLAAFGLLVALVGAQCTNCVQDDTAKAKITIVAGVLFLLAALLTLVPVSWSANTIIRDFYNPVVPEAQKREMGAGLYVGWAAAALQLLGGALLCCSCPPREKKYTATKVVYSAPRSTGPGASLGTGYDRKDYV
# T7: CLDN5-myc/His (fusion protein in which myc/His was added to the C-terminal of human CLDN5), expressed in CHO … (human, UniProt O00501 1-218)
# T7 sequence: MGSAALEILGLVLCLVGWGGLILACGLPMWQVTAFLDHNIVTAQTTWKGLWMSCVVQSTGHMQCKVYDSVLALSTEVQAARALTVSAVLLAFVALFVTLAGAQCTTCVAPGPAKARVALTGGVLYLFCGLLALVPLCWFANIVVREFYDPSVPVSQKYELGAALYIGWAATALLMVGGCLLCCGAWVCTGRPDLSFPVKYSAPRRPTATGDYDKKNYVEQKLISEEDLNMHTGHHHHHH
# B1: anti-CLDN4 monoclonal antibody KM3907 produced by hybridoma KM3907 (FERM BP-10885) (antibody, mouse IgG2a, V domains shown)
# VH: QVQLQQSGPELVKPGASVKISCKASGYAISTSWMNWVKQRPGKGLEWIGRINPGDGNTNYNGKFMAKATLTADKPSSTAYMQLSSLTSEDSAVYFCTRGDRWSGAMDYWGQGTSVTVSS
# VL: GNVLTQSPAIMSASPGEKVTMTCRASSSVSSSYLHWYQQKSGASPKLWIYSTSNLASGVPVRFSGSGSGTSYSLTISSVEAEDAATYYCQQYSGFPLTFGAGTKLELK
# B2: anti-CLDN4 monoclonal antibody KM3900 produced by hybridoma KM3900 (FERM BP-10751) (antibody, V domains shown)
# VH: EVQLQQSGPELVKPGASVKISCKASGYTFTDYYMNWVKQSHGKSLEWIGDVVPNNGVPTYNQKFKGKATLTVDKSSSTAYMELRSLTSEDSAVYYCARPHYYYAGRSGAMDYWGQGTSVTVSS
# VL: QIVLTQSPAIMSASLGERVTMTCTASSTVSSTYLHWYQQKPGSSPKLWIYSTSNLASGVPARFSGSGSGTSYSLTISSMEAEDAATYYCHQYHRSPPTFGGGTKLEIK
# notes: Used as hybridoma culture supernatant (8.6 µg/ml) or purified antibody (5 µg/ml); also called anti-CLDN4 mouse antibody KM3900
# Legend:
# [1] = biological target: T1, CLDN6-myc/His (fusion protein in which …); assay: FCM on live CLDN6/CHO cells
# Description: (§1) Each of CLDN3/CHO, CLDN4/CHO, CLDN5/CHO, CLDN6/CHO and CLDN9/CHO was cultured for 3 to 4 days and peeled off using 0.02% EDTA solution (manufactured by Nacalai Tesque), and the recovered cells were washed with PBS and, in order to avoid nonspecific adsorption of antibodies, blocked at ice temperature for 30 minutes. The cells were dispensed at 1 to 5×10⁵ cells/100 μl BSA-PBS into a 96-well U bottom plate and centrifuged (1,500 rpm, 5 minutes), the supernatant was removed and then a mouse anti-serum to be immunized, a culture supernatant of hybridoma KM3900 (8.6 μg/ml), anti-CLDN4 monoclonal antibodies KM3900 and KM3907 diluted to 5 μg/ml and a mouse IgG2a isotype control (manufactured by DAKO) were dispensed as the primary antibodies at 100 μl/well and allowed to react at ice temperature for 60 minutes. After the reaction and then washing with BSA-PBS once, FITC-labeled anti-mouse immunoglobulin G (H+L) (manufactured by DAKO) diluted 50-fold with BSA-PBS was added thereto as the secondary antibody at 100 μl/well and allowed to react at ice temperature for 30 minutes under shading. After washing again once with BSA-PBS and subsequently suspending in PBS, the fluorescent intensity was measured by FCM (manufactured by Beckman Coulter).
# [2] = biological target: T2, CLDN9-myc/His (fusion protein in which …); assay: FCM on live CLDN9/CHO cells
# Description: as §1
# [3] = biological target: T3, CLDN4-myc/His (fusion protein in which …); assay: FCM on live CLDN4/CHO cells
# Description: as §1
# [4] = biological target: T4, 4-EL1/6-EL2 (CLDN4-CLDN6 fusion …); assay: FCM on live 4-EL1/6-EL2/CHO cells
# [5] = biological target: T5, 6-EL1/4-EL2 (CLDN4-CLDN6 fusion …); assay: FCM on live 6-EL1/4-EL2/CHO cells
# [6] = biological target: T6, CLDN3-myc/His (fusion protein in which …); assay: FCM on live CLDN3/CHO cells
# Description: as §1
# [7] = biological target: T7, CLDN5-myc/His (fusion protein in which …); assay: FCM on live CLDN5/CHO cells
# Description: as §1
Binder,binding result [1],binding result [2],binding result [3],binding result [4],binding result [5],binding result [6],binding result [7]
B1,no binding (tested: 5 µg/ml),no binding (tested: 5 µg/ml),binds,binds,no binding,binds,no binding (tested: 5 µg/ml)
B2,no binding (tested: 5 µg/ml),no binding (tested: 5 µg/ml),binds,no binding,binds,no binding (tested: 5 µg/ml),no binding (tested: 5 µg/ml)
